We go through 2 molecules from patent US20160340442A1 (Dana-Farber, published 2016).

The target of one experiment is T1, MUC1-C/ECD protein (human, UniProt P15941 1098-1155).
T1 construct: also called MUC1-C/ECD antigen; the antigen
T1 sequence: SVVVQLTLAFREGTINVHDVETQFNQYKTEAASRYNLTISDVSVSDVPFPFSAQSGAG
Briefly: ELISA, plates coated with the MUC1-C/ECD antigen; soluble MUC1-C/ECD protein also abrogated 3D1 binding to cells. On the technique in general: An ELISA detects its analyte on a solid surface through an enzyme-linked reagent.

Another experiment has as its target T2, P1 (human).
T2 construct: Synthetic overlapping peptide of MUC1-C/ECD; also called peptide P1
T2 peptide: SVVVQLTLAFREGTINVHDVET
The experiment in a line: ELISA on coated MUC1-C/ECD antigen with or without peptide (indirect). The procedure: (§1) Characterized of 7B8 and 3D1 antibodies. Linear epitope mapping of 7B8 and 3D1 clones was performed using three overlapping peptides spanning the entire MUC1-C/ECD region (58 amino acids) were synthesized. ELISA assays were performed using 7B8 or 3D1 purified antibodies in the presence or absence of P1, P2 or P3 peptides. […] Conformational epitope mapping of 7B8 and 3D1 was performed using eight critical individual point mutants in the MUC1-C/ECD region by ELISA. […] These findings indicate that D19 is a part of the conformational core/pocket for 3D1 binding. ZR-75-1 breast carcinoma cells were used determine 7B8 or 3D1 antibody binding in a competitive format with MUC1-C/ECD and analyzed by FLOW. […] These findings indicate that the conformational binding epitopes of 7B8 and 3D1 are different. The sequencing results for hybridoma 3D1 is shown in FIG. 50 and is discussed in greater detail below.

The target in a further experiment is T3, P3 (human).
T3 construct: Synthetic overlapping peptide of MUC1-C/ECD; also called peptide P3
T3 peptide: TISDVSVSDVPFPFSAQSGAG
The description is as above. The procedure:
as §1

In a further experiment the target is T4, P2 (human).
T4 construct: Synthetic overlapping peptide of MUC1-C/ECD; also called peptide P2
T4 peptide: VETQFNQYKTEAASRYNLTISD
The description is as above. The procedure: as §1

The next experiment deals with T5, MUC1-C/ECD-hFc (human, UniProt P15941 1098-1155).
T5 construct: The screening text says the antigen was MUC1-C/ECD-mFc or MUC1-C/ECD-hFc; the hFc form is used here because hFc alone was the negative control; also called hFc-MUC1-C/ECD; MUC1-ECD-hFc; not shown: human Fc (hFc)
T5 sequence: T1 sequence
The experiment in a line: hybridoma screen, indirect ELISA or Western blot; antigen MUC1-C/ECD-mFc or MUC1-C/ECD-hFc. The procedure: ELISA. ELISA was performed by coating the plates with 100 μl of 1 μg/ml MUC1-C/ECD-hFc or MUC1-C/ECD-mFc or hFc (as negative control). Hybridoma supernatants or immune sera were screened against the coated proteins by incubating with the plate for 1 hr. The bound antibody was detected by incubating with specific secondary antibody (anti-mouse Ig, F(ab)₂ specific) conjugated to HRP (horse radish peroxidase). Further, the reaction was developed with HRP-specific substrate for 30 min and the plate was read at 405 nm.
Fusion for Hybridoma and Primary Screening. Based on the results obtained from the ELISA, spleen from both mice was used for fusion with myeloma cells to generate hybridoma. Spleen-myeloma fusion was performed by mixing mouse myeloma cells sp2/0-Ag14 and splenocytes in 1:3 ratio in the presence of polyethylene glycol (PEG). Post fusion cell culture was carried out in selective HAT medium. Hybridomas selected by indirect ELISA or Western blot using recombinant MUC-C/ECD-mFc or MUC1-C/ECD-hFc as the antigen and were subjected to subcloning by limiting dilution protocol until the clones become stable. The fusion clones obtained from the spleen of mouse 1 is termed as 315.1 clones and similarly the one from mouse 2 is called 315.2 clones. The fusion clones obtained from the spleen of mouse 1 from other immunization batch is termed as 384 clones. […]

Experiment [1] deals with T6, bacterially-produced MUC1-C/ECD protein (human, UniProt P15941 1098-1155).
T6 construct: Produced in bacteria; also called MUC1 proteins made in bacteria; p58-mFc
T6 sequence: T1 sequence
The experiment in a line: Western blot. A general note: Immunoblotting shows a protein as a band on a membrane.

B1: 441.3.3D1.D6.D11.B1.F10 (antibody, V domains shown)
VH: QVQLQQSGAELVRPGSSVKISCKTSGYAFSNFWMNWVKQRPGQGLEWIGQIYPGDGDTNYNGKFKGKATLTADKSSSTAYMQLSSLTSEASAVYFCARSYYRSAWFAYWGQGTLVSVSA
VL: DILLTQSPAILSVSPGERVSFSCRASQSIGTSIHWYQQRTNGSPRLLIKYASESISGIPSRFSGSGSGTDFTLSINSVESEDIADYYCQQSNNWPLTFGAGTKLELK
notes: Mouse hybridoma antibody; also called Anti-Muc-1; 536064-1
Regarding B1, the binding result is given as “binds” with MUC1-C/ECD protein, “no binding” with P1, “no binding” with P3 and “no binding” in the experiment with P2.

B2: 384.1.2H11.F2.G6 (antibody, V domains shown)
VH: QIQLVQSGPELKKPGETVKTSCKASGYTFTGYSMHWVKQAPGKGLKWMGWINTETGEPTYADDFKGRFALSLETSASTTYLQINNLKNEDTATYFCVRGTGGDDWGQGTTLTVSS
VL: DVVMTQTPLSLPVSLGDQASISCRSSQSLVHSNGNTYLHWYLQKPGQSPKLLIYKVSNRFSGVPDRFSGSGSGTDFTLKINRVEAEDLGVYFCSQGTHVPPTFGGGTKLEIKR
notes: The printed entries run a few residues into the constant regions; also called 384.2H11.F2.G6
Regarding B2, the binding result (with MUC1-C/ECD-hFc; in experiment [1]) was “binds” throughout.
